Results on one molecule are retold here after doi:10.1101/2024.02.09.579451.

The target of this assay is T1, human Kir2.1 channel, wild type (Kir2.1-WT) (human), P63252.
T1 chain: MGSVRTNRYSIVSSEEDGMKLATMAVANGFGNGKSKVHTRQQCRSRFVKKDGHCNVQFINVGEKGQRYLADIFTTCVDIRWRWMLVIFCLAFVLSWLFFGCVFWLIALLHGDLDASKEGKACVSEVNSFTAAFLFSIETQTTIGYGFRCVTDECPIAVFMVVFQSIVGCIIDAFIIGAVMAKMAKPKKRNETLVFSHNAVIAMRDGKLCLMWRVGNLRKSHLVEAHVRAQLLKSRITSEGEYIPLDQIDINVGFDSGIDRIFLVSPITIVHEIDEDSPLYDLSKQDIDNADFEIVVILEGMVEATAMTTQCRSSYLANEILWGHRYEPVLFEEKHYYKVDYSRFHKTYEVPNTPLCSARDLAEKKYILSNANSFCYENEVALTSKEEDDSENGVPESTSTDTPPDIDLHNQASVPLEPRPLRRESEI
Nature of the assay: SEC-MALLS. To be noted: remark: other sources report otherwise.

B1: human Kir2.1 channel, wild type (Kir2.1-WT), P63252 1-427 (natural protein)
chain: MGSVRTNRYSIVSSEEDGMKLATMAVANGFGNGKSKVHTRQQCRSRFVKKDGHCNVQFINVGEKGQRYLADIFTTCVDIRWRWMLVIFCLAFVLSWLFFGCVFWLIALLHGDLDASKEGKACVSEVNSFTAAFLFSIETQTTIGYGFRCVTDECPIAVFMVVFQSIVGCIIDAFIIGAVMAKMAKPKKRNETLVFSHNAVIAMRDGKLCLMWRVGNLRKSHLVEAHVRAQLLKSRITSEGEYIPLDQIDINVGFDSGIDRIFLVSPITIVHEIDEDSPLYDLSKQDIDNADFEIVVILEGMVEATAMTTQCRSSYLANEILWGHRYEPVLFEEKHYYKVDYSRFHKTYEVPNTPLCSARDLAEKKYILSNANSFCYENEVALTSKEEDDSENGVPESTSTDTPPDIDLHNQASVPLEPRPLRRESEI
With B1, the stoichiometry N – broadly, a count of units in the complex or per binding partner – came out at 4.
